Drawing on publication PMC5067699, this text covers Kd for 1 substance.

Test [1] deals with Peptide-7 (tau 195-214, pS199/pS202). Description: SPR.
The target in test [2] is paired-helical filament tau (PHF-tau) from AD brain (human (endogenous in AD patient cortex)) (UniProt P10636). Kind of test: SPR.
Sequence of paired-helical filament tau (PHF-tau) from AD brain (human (endogenous in AD patient cortex)) (P10636 whole entry): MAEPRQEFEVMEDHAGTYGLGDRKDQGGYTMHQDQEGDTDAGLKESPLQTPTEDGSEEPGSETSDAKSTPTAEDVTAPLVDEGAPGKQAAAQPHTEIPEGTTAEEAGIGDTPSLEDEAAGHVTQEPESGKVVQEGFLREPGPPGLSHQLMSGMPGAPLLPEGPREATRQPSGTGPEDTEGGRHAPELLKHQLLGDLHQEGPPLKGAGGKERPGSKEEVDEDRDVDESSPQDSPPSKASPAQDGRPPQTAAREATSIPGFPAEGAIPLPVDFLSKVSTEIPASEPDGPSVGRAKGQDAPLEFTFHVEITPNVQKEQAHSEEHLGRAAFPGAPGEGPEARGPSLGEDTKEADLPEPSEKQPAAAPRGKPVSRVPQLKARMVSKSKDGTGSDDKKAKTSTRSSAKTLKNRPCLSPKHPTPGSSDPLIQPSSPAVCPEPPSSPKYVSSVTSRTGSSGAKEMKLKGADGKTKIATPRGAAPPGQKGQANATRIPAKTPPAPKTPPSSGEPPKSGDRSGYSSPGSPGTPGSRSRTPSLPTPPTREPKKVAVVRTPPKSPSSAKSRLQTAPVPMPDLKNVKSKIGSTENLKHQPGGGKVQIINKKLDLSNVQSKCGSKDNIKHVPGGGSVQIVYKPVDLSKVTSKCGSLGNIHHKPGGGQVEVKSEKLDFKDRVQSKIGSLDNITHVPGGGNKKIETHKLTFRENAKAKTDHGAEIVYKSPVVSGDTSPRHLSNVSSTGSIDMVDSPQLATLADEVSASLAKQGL

As for “AT8 Fab (from UniProt P01857 1-103; P01834 1-107)”, the dissociation constant Kd in test [1] is over 1000 µM; in test [2], 0.021 µM.
